Experiments:
[1] = target: CD16-F176V-V196_S197insP-V197_T198insP (Homo sapiens (Human)) (UniProt P08637); experiment: cell-based or functional assay
[2] = target: CD16-WT (Homo sapiens (Human)) (UniProt P08637); experiment: cell-based or functional assay

decrease of CD16 expression on iNK cells after adding Raji cells and Rituximab [1]: 9%
decrease of CD16 expression on iNK cells after adding Raji cells and Rituximab [2]: 40%
Substance: metalloproteinase 17 (ADAM17) (from UniProt P78536 215-824) (enzyme)

Source: patent publication US20250257116A1
